{"source": "paper PMC5686944", "target": "plasminogen (UniProt P00747)", "sequence (P00747 20-810)": "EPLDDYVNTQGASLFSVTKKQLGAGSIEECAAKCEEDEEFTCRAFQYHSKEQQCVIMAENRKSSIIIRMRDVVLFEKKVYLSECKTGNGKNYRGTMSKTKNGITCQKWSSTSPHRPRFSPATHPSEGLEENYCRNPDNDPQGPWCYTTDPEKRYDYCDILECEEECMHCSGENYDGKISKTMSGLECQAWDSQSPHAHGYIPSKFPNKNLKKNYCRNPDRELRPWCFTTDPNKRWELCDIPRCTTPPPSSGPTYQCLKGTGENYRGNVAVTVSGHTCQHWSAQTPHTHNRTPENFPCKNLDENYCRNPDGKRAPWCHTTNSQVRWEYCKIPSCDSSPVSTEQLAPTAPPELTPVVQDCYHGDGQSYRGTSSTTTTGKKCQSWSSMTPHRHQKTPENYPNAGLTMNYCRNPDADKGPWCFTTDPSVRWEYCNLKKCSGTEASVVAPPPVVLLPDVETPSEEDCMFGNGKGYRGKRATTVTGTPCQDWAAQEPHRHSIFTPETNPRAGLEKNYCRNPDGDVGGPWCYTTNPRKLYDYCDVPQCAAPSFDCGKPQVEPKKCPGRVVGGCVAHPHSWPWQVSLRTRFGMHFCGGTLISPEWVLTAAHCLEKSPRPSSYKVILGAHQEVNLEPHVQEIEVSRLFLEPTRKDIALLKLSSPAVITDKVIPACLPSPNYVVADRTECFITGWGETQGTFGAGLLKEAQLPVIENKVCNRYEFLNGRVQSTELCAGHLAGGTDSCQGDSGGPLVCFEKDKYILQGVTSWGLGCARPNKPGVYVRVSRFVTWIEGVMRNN", "data": [{"substance": "wild-type staphylokinase (Sak) (natural protein)", "values": [{"measurement": "fibrin plate assay, diameter of halo pattern (5.0 x 10^3 IU unmodified Sak, 310 K, 20 h)", "result": 25.4, "unit": "mm"}]}]}
